# Reference: patent publication US20180273622A1 (published 2018)
# B1: Fc DRA222 (TSC311 or TSC312) (Fc fusion)
# chain: EPKSSDKTHTCPPCPAPEAAGAPSVFLFPPKPKDTLMISRTPEVTCVVVDVSHEDPEVKFNWYVDGVEVHNAKTKPREEQYNSTYRVVSVLTVLHQDWLNGKAYACAVSNKALPAPIEKTISKAKGQPREPQVYTLPPSRDELTKNQVSLTCLVKGFYPSDIAVEWESNGQPENNYKTTPPVLDSDGSFFLYSKLTVDKSRWQQGNVFSCSVMHEALHNHYTQKSLSLSPGQRHNNSSLNTGTQMAGHSPNSQVQLVESGGGVVQPGRSLRLSCKASGYTFTRSTMHWVRQAPGQGLEWIGYINPSSAYTNYNQKFKDRFTISADKSKSTAFLQMDSLRPEDTGVYFCARPQVHYDYNGFPYWGQGTPVTVSSGGGGSGGGGSGGGGSAQDIQMTQSPSSLSASVGDRVTMTCSASSSVSYMNWYQQKPGKAPKRWIYDSSKLASGVPARFSGSGSGTDYTLTISSLQPEDFATYYCQQWSRNPPTFGGGTKLQITSSS
# B2: Fc H8L1 (TSC316) (Fc fusion)
# chain: EPKSSDKTHTCPPCPAPEAAGAPSVFLFPPKPKDTLMISRTPEVTCVVVDVSHEDPEVKFNWYVDGVEVHNAKTKPREEQYNSTYRVVSVLTVLHQDWLNGKAYACAVSNKALPAPIEKTISKAKGQPREPQVYTLPPSRDELTKNQVSLTCLVKGFYPSDIAVEWESNGQPENNYKTTPPVLDSDGSFFLYSKLTVDKSRWQQGNVFSCSVMHEALHNHYTQKSLSLSPGQRHNNSSLNTGTQMAGHSPNSQVQLVQSGAEVKKPGASVKVSCKASGYTFTRSTMHWVRQAPGQGLEWMGYINPSSAYTNYNQKFKDRVTMTRDTSTSTVYMELSSLRSEDTAVYYCARPQVHYDYNGFPYWGQGTLVTVSSGGGGSGGGGSGGGGSGGGGSDIQMTQSPSSLSASVGDRVTMTCSASSSVSYMNWYQQKPGKAPKRWIYDSSKLASGVPARFSGSGSGTDYTLTISSLQPEDFATYYCQQWSRNPPTFGGGTKLQITSSS
# B3: Fc H7L1 (TSC313) (Fc fusion)
# chain: EPKSSDKTHTCPPCPAPEAAGAPSVFLFPPKPKDTLMISRTPEVTCVVVDVSHEDPEVKFNWYVDGVEVHNAKTKPREEQYNSTYRVVSVLTVLHQDWLNGKAYACAVSNKALPAPIEKTISKAKGQPREPQVYTLPPSRDELTKNQVSLTCLVKGFYPSDIAVEWESNGQPENNYKTTPPVLDSDGSFFLYSKLTVDKSRWQQGNVFSCSVMHEALHNHYTQKSLSLSPGQRHNNSSLNTGTQMAGHSPNSQVQLVQSGAEVKKPGASVKVSCKASGYTFTRSTMHWVRQAPGQGLEWMGYINPSSAYTNYNQKFKDRVTMTRDTSISTAYMELSRLRSDDTAVYYCARPQVHYDYNGFPYWGQGTLVTVSSGGGGSGGGGSGGGGSGGGGSDIQMTQSPSSLSASVGDRVTMTCSASSSVSYMNWYQQKPGKAPKRWIYDSSKLASGVPARFSGSGSGTDYTLTISSLQPEDFATYYCQQWSRNPPTFGGGTKLQITSSS
# Molecular target: human CD3 (human, UniProt P07766 23-207; P09693 23-182; P04234 22-171; P20963 22-164)
# Experiment: flow cytometry, Jurkat T cells
# Chain of human CD3 (P07766 23-207, chain 1 of 4): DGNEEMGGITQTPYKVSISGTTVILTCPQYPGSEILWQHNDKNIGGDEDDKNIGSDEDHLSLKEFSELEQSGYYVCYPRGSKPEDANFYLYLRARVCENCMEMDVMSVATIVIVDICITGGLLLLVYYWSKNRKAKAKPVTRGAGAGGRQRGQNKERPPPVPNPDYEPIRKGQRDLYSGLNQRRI
# Chain of human CD3 (P09693 23-182, chain 2 of 4): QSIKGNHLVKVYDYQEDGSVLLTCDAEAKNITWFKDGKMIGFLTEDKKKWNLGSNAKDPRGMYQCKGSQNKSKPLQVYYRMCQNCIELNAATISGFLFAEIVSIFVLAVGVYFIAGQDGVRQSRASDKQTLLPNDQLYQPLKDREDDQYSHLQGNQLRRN
# Chain of human CD3 (P04234 22-171, chain 3 of 4): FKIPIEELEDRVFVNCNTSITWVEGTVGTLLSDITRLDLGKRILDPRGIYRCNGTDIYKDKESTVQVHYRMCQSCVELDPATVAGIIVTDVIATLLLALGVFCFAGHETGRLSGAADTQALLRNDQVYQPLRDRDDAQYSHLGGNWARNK
# Chain of human CD3 (P20963 22-164, chain 4 of 4): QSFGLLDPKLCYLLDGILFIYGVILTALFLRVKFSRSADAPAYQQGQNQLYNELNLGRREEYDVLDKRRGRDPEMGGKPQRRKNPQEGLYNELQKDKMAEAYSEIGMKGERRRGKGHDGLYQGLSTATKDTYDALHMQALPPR
row,Binder,EC50 [nM]
1,B1,1.7
2,B2,1.3
3,B3,0.87
